Assay results reported in publication PMC6386982, “A Thermostable Monoacylglycerol Lipase from Marine Geobacillus sp. 12AMOR1: Biochemical Characterization and Mutagenesis Study” (International Journal of Molecular Sciences, 2019).

Legend:
Assay in all cases: purified protein
Format in all cases: biochemical, Geobacillus sp. 12AMOR1
Details in all cases: 20 mM Tris-HCl pH 8.0, 30 °C
[1] = test system: T1, CCCC(=O)Oc1ccc([N+](=O)[O-])cc1
T1 construct: catalytic triad Ser97, Asp196, His226

[2] = test system: T2, CCCCCC(=O)Oc1ccc([N+](=O)[O-])cc1
T2 construct: catalytic triad Ser97, Asp196, His226

[3] = test system: T3, CCCCCCCC(=O)Oc1ccc([N+](=O)[O-])cc1
T3 construct: catalytic triad Ser97, Asp196, His226

| Substance | Km [1] | kcat [1] | kcat/Km [1] | Km [2] | kcat [2] | kcat/Km [2] | Km [3] | kcat [3] | kcat/Km [3] |
| --- | --- | --- | --- | --- | --- | --- | --- | --- | --- |
| GMGL (Geobacillus sp. monoacylglycerol lipase) (Geobacillus sp. 12AMOR1; I145A) | 9.56 mM | 3.25 s⁻¹ | 340 M⁻¹ s⁻¹ | 1.34 mM | 2.02 s⁻¹ | 1510 M⁻¹ s⁻¹ | 8.32 mM | 0.95 s⁻¹ | 110 M⁻¹ s⁻¹ |
| GMGL (Geobacillus sp. monoacylglycerol lipase) (Geobacillus sp. 12AMOR1; I170F) | 2.37 mM | 3.31 s⁻¹ | 1210 M⁻¹ s⁻¹ | 1.60 mM | 3.67 s⁻¹ | 2290 M⁻¹ s⁻¹ | 4.63 mM | 2.08 s⁻¹ | 450 M⁻¹ s⁻¹ |
| GMGL (Geobacillus sp. monoacylglycerol lipase) (Geobacillus sp. 12AMOR1; L142A) | 14.78 mM | 15.9 s⁻¹ | 1080 M⁻¹ s⁻¹ | 1.66 mM | 4.08 s⁻¹ | 2460 M⁻¹ s⁻¹ | 4.65 mM | 1.29 s⁻¹ | 280 M⁻¹ s⁻¹ |
| GMGL (Geobacillus sp. monoacylglycerol lipase) (Geobacillus sp. 12AMOR1) | 6.80 mM | 9.74 s⁻¹ | 1430 M⁻¹ s⁻¹ | 4.06 mM | 4.31 s⁻¹ | 1060 M⁻¹ s⁻¹ | 2.83 mM | 2.58 s⁻¹ | 910 M⁻¹ s⁻¹ |
